Source: patent US12514920B1, “Respiratory syncytial virus mRNA vaccine, and preparation method therefor and use thereof” (Hangzhou Tianlong Pharmaceutical Co., Ltd., priority 2024, dated 2026)

Tests used:
[1] = tested on: RSV pre-F antibody (3C12); experiment: Binding of epitope Φ of RSV F antigen mutants by flow cytometry; conditions: for RSV pre-F antibody (3C12) Epitope Φ (%) binding rate: flow cytometry; for Φ/II (%): ratio of epitope Φ (3C12) to epitope II (11A9) binding rate
Excerpt: (§1) To investigate whether the RSV F antigen mutants have pre-fusion epitopes, an RSV pre-F antibody (3C12) (specifically binding to the RSV pre-F epitope […]) and an RSV F antibody (11A9) (binding to pre-F and post-F epitopes II) were detected by flow cytometry in this example, and RSV F protein mutants in the pre-F conformation were expected to bind to the antibodies tested.
(§2) • 293T cells (purchased from ATCC cell bank); RSV pre-F antibody (3C12), epitope […] (Novoprotein, Cat. No.: DA101); RSV F antibody (11A9), epitope II (Novoprotein, Cat. No.: DA091); • experimental groups: mRNA vaccines corresponding to the expressed antigens in Example 3;
(§3) • (1) Cell transfection: 293T cells were seeded at 1.3×10^5 cells/well in a 24-well plate. The next day, mRNA-LNP samples (containing 300 ng of mRNA) were added directly to the cells, and the mixture was uniformly mixed. • (2) Cell collection: The cells were taken out of the incubator after 16 h of transfection, the medium was pipetted off, 500 μL of 0.1% BSA solution was pipetted to wash the medium remaining in the well plate, taking care not to resuspend the cells, and the 0.1% BSA solution was pipetted off. 500 μL of 0.1% BSA solution was added to each well, and the cells were pipetted and transferred to a 1.5 mL centrifuge tube. • (3) Centrifugation: The cells were harvested by centrifugation at 400 g for 5 min at 4° C. in the dark, and the supernatant was discarded. • (4) Straining: 50.6 μL of RSV fluorescent antibody diluent was added to each of the control sample and the test samples to resuspend the cells, and the samples were incubated at 4° C. for 2 h in the dark. • (5) Cleaning: After the incubation was completed, 500 μL of 0.1% BSA solution was added to each tube, the cells were harvested by centrifugation at 400 g for 5 min at 4° C. in the dark, and the supernatant was discarded. This operation was repeated three times. • (6) Resuspension of cells: 200 μL of 0.1% BSA solution was added to each sample, and the cells were carefully pipetted to prepare a cell suspension. • (7) Detection on flow cytometer: The […] of RSV F mutants to antibodies were measured using flow cytometry, with 1×10^4 cells detected in each measurement.
(§4) The RSV pre-F antibody (3C12) used in this example specifically binds to the RSV pre-F epitope Φ, and the RSV F antibody (11A9) binds to the pre-F and post-F epitopes II. Whether the pre-fusion conformations of the RSV F mutants are stable can be further determined by detecting the binding of the epitope Φ and the epitope II on the mutants to corresponding epitopes of antibodies 3C12 and 11A9, respectively, by flow cytometry.

RSV F antibody (11A9) = experiment: Binding of epitope II of RSV F antigen mutants by flow cytometry; conditions: epitope II, antibody 11A9
Excerpt: as §1, §2, §3, §4

[2] = tested on: RSV pre-F antibody (3C12); type: physicochemical; conditions: ELISA binding to 3C12; for Stress resistance parameter, Osmotic pressure (mM) 3000: high osmotic pressure 3000 mM; for Stress resistance parameter, Osmotic pressure (mM) 3000 / Stress resistance parameter, Osmotic pressure (mM) 10: room temperature; for Stress resistance parameter, Osmotic pressure (mM) 3000 / Stress resistance parameter, Osmotic pressure (mM) 10 / Stress resistance parameter, pH 3.5 / Stress resistance parameter, pH 10: 60 min; for Stress resistance parameter, Temperature (° C.) 50: incubation at 50° C. for 60 min; for Stress resistance parameter, Osmotic pressure (mM) 10: low osmotic pressure 10 mM; for Stress resistance parameter, pH 3.5: pH 3.5, room temperature; for Stress resistance parameter, pH 10: pH 10, room temperature; for Stress resistance parameter, Temperature (° C.) 4: storage at 4° C. for one week
Excerpt: To investigate the stability of the RSV F antigen mutants under different pH, temperature, osmotic pressure and other conditions, the mutants were subjected to stress tests under different treatment conditions in this example.
• 293T cells (purchased from ATCC cell bank); • Primary antibody: RSV pre-F antibody (3C12), epitope Φ (purchased from Suzhou Novoprotein Scientific Co., Ltd. (hereinafter referred to as Novoprotein), Cat. No.: DA101); • Standard: RSV pre-F trimer protein (Novoprotein, Cat. No.: DRA230); • Secondary antibody: peroxidase AffiniPure goat anti-human IgG (H+L) (purchased from Yeasen Biotechnology (Shanghai) Co., Ltd. (hereinafter referred to as Yeasen), Cat. No.: N/A); • Experimental group: mRNA vaccines after screening in Example 4;
Coating: A 96-well microplate was coated with a working solution and incubated at 2 to 8° C. for 16 to 20 h.
Plate washing: Phosphate buffered saline PBST was added to each well, and the plate was washed 5 times using a plate washer and patted dry on absorbent paper.
Blocking: After a blocking solution was added, the […] were placed on a constant temperature microplate shaker and incubated at 400 rpm for 1.5 h at 37° C.
Plate washing: PBST was added to each well, and the plate was washed 5 times using a plate washer and patted dry on absorbent paper.
Primary antibody incubation: A primary antibody dilution was added to each well, and the plate was sealed with a sealing film, and then incubated at 400 rpm for 1.5 h at 37° C.
Secondary antibody incubation: A secondary antibody dilution was added to each well, and the plate was sealed with a sealing film, and then incubated at 400 rpm for 45 min at 37° C.
Color development: A chromogenic solution was added, and the plate was sealed with a sealing film, and then placed on a constant temperature microplate shaker and incubated at 400 rpm for 25 min at 37° C.
Reaction stopping: After the color development was completed, a stop buffer was added at […] to the microplate to stop the reaction.
Plate reading: Absorbance values (OD values) were read within 5 min using a multimode microplate reader, with dual wavelengths of 450 nm and 630 nm set.
In this example, stability screening of the mutants through different treatment conditions was defined as a stress test, including storage at 4° C. for one week; incubation at 50° C. for 60 min; treatment at room temperature under low osmotic pressure and high osmotic pressure conditions for 60 min; treatment at room temperature under acid and base conditions for 60 min. The binding of the mutants to the RSV pre-F antibody (3C12) recognizing the epitope Φ was detected by ELISA.

| Molecule | RSV pre-F antibody (3C12) Epitope Φ (%) binding rate [1] | Φ/II (%) [1] | RSV F antibody (11A9) Epitope II (%) binding rate (RSV F antibody (11A9)) | Stress resistance parameter, Osmotic pressure (mM) 3000 [2] | Stress resistance parameter, Temperature (° C.) 50 [2] | Stress resistance parameter, Osmotic pressure (mM) 10 [2] | Stress resistance parameter, pH 3.5 [2] | Stress resistance parameter, pH 10 [2] | Stress resistance parameter, Temperature (° C.) 4 [2] |
| --- | --- | --- | --- | --- | --- | --- | --- | --- | --- |
| YK-RSV-004 (protein) QNITEEFYQSTCSAVSKGYLGALRTGWYTSVITIELSNIKENKCNGTDAKVKLIKQELDKYKNAVTDLQLLMQSTPATGSGSAICSGVAVCKVLHLEGEVNKIKSALLSTNKAVVSLSNGVSVLTIKVLDLKNYIDKQLLPIVNKQSCPISNIETVIEFQQKNNRLLEITREFSVNAGVTTPVSTYMLTNSELLSLINDMPITNDQKKLMSNNVQIVRQQSYSIMCIIKEEVLAYVVQLPLYGVIDTPCWKLHTSPLCTTNTKEGSNICLTRTDRGWYCDNAGSVSFFPQAETCKVQSNRVFCDTMNSRTLPSEVNLCNVDIFNPKYDCKIMTSKTDVSSSVITSLGAIVSCYGKTKCTASNKNRGIIKTFSNGCDYVSNKGVDTVSVGNTLYCVNKQEGQSLYVKGEPIINFYDPLVFPSSEFDASISQVNEKINQSLAFIRKSDELLHNVNAGKSTTNIMITTIIIVIIVILLSLIAVGLLLY | 82.1% | 91.1% | 90.1% | 0.46 ± 0.13 | 0.48 ± 0.05 | 0.91 ± 0.23 | 0.97 ± 0.21 | 1.00 ± 0.27 | 0.72 ± 0.06 |
| YK-RSV-016 (protein) QNITEEFYCSTCSAVSKGYLGALRTGWYTSVILIELSNIKENKCNGTDAKVKLIKQELDKYKNAVTDLQLLMQSTPATGSGSAICSGVAVSKVLHLEGEVNKIKSALLSTNKAVVSLSNGVSVLTFKVLDLKNYIDKQLLPIVNKQSCSIPNIETVIEFQQKNNRLLEITREFSVNAGVTTPVSTYMLTNSELLSLINDMPITNDQKKLMSNNVQIVRQQSYSIMSIIKEEVLAYVVQLPLYGVIDTPCWKLHTSPLCTTNTKEGSNICLTRTDRGWYCDNAGSVSFFPQAETCKVQSNRVFCDTMNSRTLPSEVNLCNVDIFNPKYDCKIMTSKTDVSSSVITSLGAIVSCYGKTKCTASNKNRGIIKTFSNGCDYVSNKGVDTVSVGNTLYCVNKQEGQSLYVKCEPIINFYDPLVFPSSEFDASISQVNEKINQSLAFIRKSDELLHNVNAGKSTTNIMITTIIIVIIVILLSLIAVGLLLY | 79.8% | 95.7% | 83.4% | 0.53 ± 0.07 | 0.80 ± 0.01 | 0.77 ± 0.08 | 0.91 ± 0.06 | 0.98 ± 0.14 | 0.28 ± 0.05 |
| YK-RSV-008 (protein) QNITEEFYQSTCSAVSKGYLGALRTGWYTCVITIELSNIKENKCNGTDAKVKLIKQELDKYKNAVTDLQLLMQSTPATGSGSAIASGVAVSKVLHLEGEVNKIKSALLSTNKAVVSLSNGVSVCTIKVLDLKNYIDKQLLPIVNKQSCSIPNIETVIEFQQKNNRLLEITREFSVNAGVTTPVSTYMLTNSELLSLINDMPITNDQKKLMSNNVQIVRQQSYSIMSIIKEEVLAYVVQLPLYGVIDTPCWKLHTSPLCTTNTKEGSNICLTRTDRGWYCDNAGSVSFFPQAETCKVQSNRVFCDTMNSRTLPSEVNLCNVDIFNPKYDCKIMTSKTDVSSSVITSLGAIVSCYGKTKCTASNKNRGIIKTFSNGCDYVSNKGVDTVSVGNTLYYVNKQEGQSLYVKGEPIINFYDPLVFPSSEFDASISQVNEKINQSLAFIRKSDELLHNVNAGKSTTNIMITTIIIVIIVILLSLIAVGLLLY | 83.9% | 90.7% | 92.5% | 0.33 ± 0.02 | 0.45 ± 0.08 | 0.81 ± 0.09 | 0.76 ± 0.21 | 0.99 ± 0.19 | 0.65 ± 0.06 |
| YK-RSV-013 (protein) QNITEEFYQSTCSAVSKGYLGALRTGWYTSVITIELSNIKENKCNGTDAKVKLIKQELDKYKNAVTDLQLLMQSTPACGSGSACASGVAVSKVLHLEGEVNKIKSALLSTNKAVVSLSNGVSVLTFKVLDLKNYIDKQLLPIVNKQSCSIPNIETVIEFQQKNNRLLEITREFSVNAGVTTPVSTYMLTNSELLSLINDMPITNDQKKLMSNNVQIVRQQSYSIMSIIKEEVLAYVVQLPLYGVIDTPCWKLHTSPLCTTNTKEGSNICLTRTDRGWYCDNAGSVSFFPQAETCKVQSNRVFCDTMNSRTLPSEVNLCNVDIFNPKYDCKIMTSKTDVSSSVITSLGAIVSCYGKTKCTASNKNRGIIKTFSNGCDYVSNKGVDTVSVGNTLYCVNKQEGQSLYVKGEPIINFYDPLVFPSSEFDASISQVNEKINQSLAFIRKSDELLHNVNAGKSTTNIMITTIIIVIIVILLSLIAVGLLLY | 89.3% | 94.7% | 94.3% | 0.43 ± 0.04 | 0.91 ± 0.23 | 0.59 ± 0.08 | 0.84 ± 0.19 | 0.92 ± 0.04 | 0.69 ± 0.11 |
